This note sets out measurements from the Human Domainome abundance scans (Beltran et al. 2025).

± gives the uncertainty stated by the source.

To fix the notation:
B1: Unconventional myosin-Ie, residues 1051 to 1108; numbered along this chain, Q12965 (parent)
chain: PQVPQCKALYAYDAQDTDELSFNANDIIDIIKEDPSGWWTGRLRGKQGLFPNNYVTKI

Variants of B1 are the subject of the series. The experiment in a line: abundance fitness (aPCA) (normalised: wild type 0, dead -1); higher = more abundant; growth selection in yeast, the domain comes from the species named. The note with it: Homo sapiens.
For the variant PQVPQCKALYAYDAQDTDELDFNANDIIDIIKEDPSGWWTGRLRGKQGLFPNNYVTKI [S21D], the abundance fitness was -0.217 ± 0.036. To PQVPQCKALYAYDAQDTDELCFNANDIIDIIKEDPSGWWTGRLRGKQGLFPNNYVTKI [S21C] belongs -0.219 ± 0.032. Regarding PQVPQCKALYAYDAQDTDELAFNANDIIDIIKEDPSGWWTGRLRGKQGLFPNNYVTKI [S21A], the abundance fitness was -0.263 ± 0.057. As for PQVPQCKALYAYDAQDTDELFFNANDIIDIIKEDPSGWWTGRLRGKQGLFPNNYVTKI [S21F], the abundance fitness is -0.938 ± 0.27. The same measure for PQVPQCKALYAYDAQDTDELGFNANDIIDIIKEDPSGWWTGRLRGKQGLFPNNYVTKI [S21G]: -0.358 ± 0.059; for PQVPQCKALYAYDAQDTDELEFNANDIIDIIKEDPSGWWTGRLRGKQGLFPNNYVTKI [S21E]: -0.247 ± 0.039; for PQVPQCKALYAYDAQDTDELHFNANDIIDIIKEDPSGWWTGRLRGKQGLFPNNYVTKI [S21H]: -0.931 ± 0.45. The same measure for PQVPQCKALYAYDAQDTDELKFNANDIIDIIKEDPSGWWTGRLRGKQGLFPNNYVTKI [S21K]: -0.266 ± 0.079; for PQVPQCKALYAYDAQDTDRLSFNANDIIDIIKEDPSGWWTGRLRGKQGLFPNNYVTKI [E19R]: -0.189 ± 0.038. To PQVPQCKALYAYDAQDTDVLSFNANDIIDIIKEDPSGWWTGRLRGKQGLFPNNYVTKI [E19V] belongs -0.382 ± 0.06; to PQVPQCKALYAYDAQDTDNLSFNANDIIDIIKEDPSGWWTGRLRGKQGLFPNNYVTKI [E19N], -0.277 ± 0.093.

As to PQVPQCKALYAYDAQDTDPLSFNANDIIDIIKEDPSGWWTGRLRGKQGLFPNNYVTKI [E19P], the abundance fitness is -0.925 ± 0.063. As for PQVPQCKALYAYDAQDTDKLSFNANDIIDIIKEDPSGWWTGRLRGKQGLFPNNYVTKI [E19K], the abundance fitness is -0.136 ± 0.073. On to PQVPQCKALYAYDAQDTDILSFNANDIIDIIKEDPSGWWTGRLRGKQGLFPNNYVTKI [E19I], for which the abundance fitness is -0.548 ± 0.22. The same measure for PQVPQCKALYAYDAQDTDWLSFNANDIIDIIKEDPSGWWTGRLRGKQGLFPNNYVTKI [E19W]: -0.359 ± 0.039; for PQVPQCKALYAYDAQDTDALSFNANDIIDIIKEDPSGWWTGRLRGKQGLFPNNYVTKI [E19A]: -0.288 ± 0.069; for PQVPQCKALYAYDAQDTDCLSFNANDIIDIIKEDPSGWWTGRLRGKQGLFPNNYVTKI [E19C]: -0.123 ± 0.074. To PQVPQCKALYAYDAQDTDTLSFNANDIIDIIKEDPSGWWTGRLRGKQGLFPNNYVTKI [E19T] belongs -0.132 ± 0.066. To PQVPQCKALYAYDAQDTDGLSFNANDIIDIIKEDPSGWWTGRLRGKQGLFPNNYVTKI [E19G] belongs -0.018 ± 0.04; to PQVPQCKALYAYDAQDTDFLSFNANDIIDIIKEDPSGWWTGRLRGKQGLFPNNYVTKI [E19F], -0.095 ± 0.078; to PQVPQCKALYAYDAQDTDQLSFNANDIIDIIKEDPSGWWTGRLRGKQGLFPNNYVTKI [E19Q], -0.125 ± 0.079. As to PQVPQCKALYAYDAQDTDDLSFNANDIIDIIKEDPSGWWTGRLRGKQGLFPNNYVTKI [E19D], the abundance fitness is -0.54 ± 0.09.

PQVPQCKALYAYDAQDTDSLSFNANDIIDIIKEDPSGWWTGRLRGKQGLFPNNYVTKI [E19S]: the abundance fitness was -0.159 ± 0.054. On to PQVPQCKALYAYDAQDTDMLSFNANDIIDIIKEDPSGWWTGRLRGKQGLFPNNYVTKI [E19M], for which the abundance fitness is -0.055 ± 0.076. The same measure for PQVPQCKALYAYDAQDTDYLSFNANDIIDIIKEDPSGWWTGRLRGKQGLFPNNYVTKI [E19Y]: 0.191 ± 0.074; for PQVPQCKALYAYDAQDTDLLSFNANDIIDIIKEDPSGWWTGRLRGKQGLFPNNYVTKI [E19L]: -0.435 ± 0.081. Turning to PQVPQCKALYAYDAQDTWELSFNANDIIDIIKEDPSGWWTGRLRGKQGLFPNNYVTKI [D18W], the abundance fitness was -0.2 ± 0.042. In the case of PQVPQCKALYAYDAQDTVELSFNANDIIDIIKEDPSGWWTGRLRGKQGLFPNNYVTKI [D18V], the abundance fitness was -0.257 ± 0.044. The same measure for PQVPQCKALYAYDAQDTYELSFNANDIIDIIKEDPSGWWTGRLRGKQGLFPNNYVTKI [D18Y]: -0.078 ± 0.076; for PQVPQCKALYAYDAQDTTELSFNANDIIDIIKEDPSGWWTGRLRGKQGLFPNNYVTKI [D18T]: -0.1 ± 0.074; for PQVPQCKALYAYDAQDTSELSFNANDIIDIIKEDPSGWWTGRLRGKQGLFPNNYVTKI [D18S]: 0.009 ± 0.046. The same measure for PQVPQCKALYAYDAQDTDEWSFNANDIIDIIKEDPSGWWTGRLRGKQGLFPNNYVTKI [L20W]: -1.01 ± 0.066.

In the case of PQVPQCKALYAYDAQDTDEDSFNANDIIDIIKEDPSGWWTGRLRGKQGLFPNNYVTKI [L20D], the abundance fitness was -0.893 ± 0.17. To PQVPQCKALYAYDAQDTDEKSFNANDIIDIIKEDPSGWWTGRLRGKQGLFPNNYVTKI [L20K] belongs -0.836 ± 0.13.

For the variant PQVPQCKALYAYDAQDTDEISFNANDIIDIIKEDPSGWWTGRLRGKQGLFPNNYVTKI [L20I], the abundance fitness is -0.05 ± 0.087.

As to PQVPQCKALYAYDAQDTDEHSFNANDIIDIIKEDPSGWWTGRLRGKQGLFPNNYVTKI [L20H], the abundance fitness is -0.977 ± 0.49.

For PQVPQCKALYAYDAQDTDEGSFNANDIIDIIKEDPSGWWTGRLRGKQGLFPNNYVTKI [L20G], the abundance fitness is -1.03 ± 0.11. The same measure for PQVPQCKALYAYDAQDTDEQSFNANDIIDIIKEDPSGWWTGRLRGKQGLFPNNYVTKI [L20Q]: -1.12 ± 0.15; for PQVPQCKALYAYDAQDTDEESFNANDIIDIIKEDPSGWWTGRLRGKQGLFPNNYVTKI [L20E]: -0.807 ± 0.13; for PQVPQCKALYAYDAQDTDECSFNANDIIDIIKEDPSGWWTGRLRGKQGLFPNNYVTKI [L20C]: -0.708 ± 0.19. The same measure for PQVPQCKALYAYDAQDTDEVSFNANDIIDIIKEDPSGWWTGRLRGKQGLFPNNYVTKI [L20V]: -0.879 ± 0.11. Consider PQVPQCKALYAYDAQDTDETSFNANDIIDIIKEDPSGWWTGRLRGKQGLFPNNYVTKI [L20T], for which the abundance fitness is -1.04 ± 0.22.

For PQVPQCKALYAYDAQDTDESSFNANDIIDIIKEDPSGWWTGRLRGKQGLFPNNYVTKI [L20S], the abundance fitness was -0.879 ± 0.14. Turning to PQVPQCKALYAYDAQDTDENSFNANDIIDIIKEDPSGWWTGRLRGKQGLFPNNYVTKI [L20N], the abundance fitness is -0.764 ± 0.35. To PQVPQCKALYAYDAQDTDEMSFNANDIIDIIKEDPSGWWTGRLRGKQGLFPNNYVTKI [L20M] belongs -0.214 ± 0.046; to PQVPQCKALYAYDAQDTDEPSFNANDIIDIIKEDPSGWWTGRLRGKQGLFPNNYVTKI [L20P], -1.11 ± 0.11.
